This is an account of results in patent publication US20070081999A1.

As a reminder, the IC50 is the midpoint of a concentration-inhibition curve. Read a low IC50 as greater potency.

The target of assay [1] is human von Willebrand factor (vWF) (human) (UniProt P04275). As to the kind of experiment: cell-based or functional assay.
The target is the same in assay [2]. The assay is described as follows: competition ELISA: inhibition of plasma or purified human vWF binding to coated human collagen type I.
For assay [3], the target named is human placental collagen type I (fibrillar) (human) (UniProt P02452). The assay is described as follows: ex vivo ELISA on coated human collagen type I, baboon plasma 300 min after 300 µg/kg mAb 82D6A3, against the pre sample. For orientation: ELISA stands for enzyme-linked immunosorbent assay.
Assay [4] shares this target. As to the kind of experiment: ex vivo ELISA on coated human collagen type I, baboon plasma 60 min after 600 µg/kg mAb 82D6A3, against the pre sample.
Assay [5] shares this target. As to the kind of experiment: ex vivo ELISA on coated human collagen type I, baboon plasma 60 min after 300 µg/kg mAb 82D6A3, against the pre sample.
Assay [6] shares this target. The assay is described as follows: ex vivo ELISA on coated human collagen type I, baboon plasma, 100 µg/kg mAb 82D6A3 group, 0 min (before dosing; pre sample set as 100%).
The target is the same in assay [7]. The assay is described as follows: ex vivo ELISA on coated human collagen type I, baboon plasma 24 h after 300 µg/kg mAb 82D6A3, against the pre sample.
The target is the same in assay [8]. The assay is described as follows: ex vivo ELISA on coated human collagen type I, baboon plasma, 600 µg/kg mAb 82D6A3 group, 0 min (before dosing; pre sample set as 100%).
The target is the same in assay [9]. The assay is described as follows: ex vivo ELISA on coated human collagen type I, baboon plasma 48 h after 300 µg/kg mAb 82D6A3, against the pre sample.
The target is the same in assay [10]. The assay is described as follows: ex vivo ELISA on coated human collagen type I, baboon plasma 300 min after 600 µg/kg mAb 82D6A3, against the pre sample.
Assay [11] shares this target. As to the kind of experiment: ex vivo ELISA on coated human collagen type I, baboon plasma 30 min after 100 µg/kg mAb 82D6A3, against the pre sample.
For assay [12] the target is unchanged. The assay is described as follows: ex vivo ELISA on coated human collagen type I, baboon plasma, 300 µg/kg mAb 82D6A3 group, 0 min (before dosing; pre sample set as 100%).
Assay [13] has the same target. As to the kind of experiment: ex vivo ELISA on coated human collagen type I, baboon plasma 30 min after 600 µg/kg mAb 82D6A3, against the pre sample.
Assay [14] has the same target. As to the kind of experiment: ex vivo ELISA on coated human collagen type I, baboon plasma 30 min after 300 µg/kg mAb 82D6A3, against the pre sample.
Assay [15] has the same target. The assay is described as follows: ex vivo ELISA on coated human collagen type I, baboon plasma 150 min after 300 µg/kg mAb 82D6A3, against the pre sample.
Assay [16] has the same target. The assay is described as follows: ex vivo ELISA on coated human collagen type I, baboon plasma 150 min after 600 µg/kg mAb 82D6A3, against the pre sample.
For assay [17] the target is unchanged. The assay is described as follows: ex vivo ELISA on coated human collagen type I, baboon plasma 60 min after 100 µg/kg mAb 82D6A3, against the pre sample.
Assay [18] shares this target. As to the kind of experiment: ex vivo ELISA on coated human collagen type I, baboon plasma 24 h after 600 µg/kg mAb 82D6A3, against the pre sample.
In assay [19] the target is baboon von Willebrand factor (vWF) (baboon). The assay is described as follows: ex vivo occupancy ELISA, baboon plasma, 600 µg/kg group, 0 min (before dosing).
Assay [20] shares this target. As to the kind of experiment: ex vivo occupancy ELISA, baboon plasma, 600 µg/kg, 150 min.
Assay [21] shares this target. As to the kind of experiment: ex vivo occupancy ELISA, baboon plasma, 600 µg/kg, 300 min.
Assay [22] has the same target. As to the kind of experiment: ex vivo occupancy ELISA, baboon plasma, 300 µg/kg, 300 min.
The target is the same in assay [23]. The assay is described as follows: ex vivo occupancy ELISA, baboon plasma, 100 µg/kg, 30 min.
For assay [24] the target is unchanged. The assay is described as follows: ex vivo occupancy ELISA, baboon plasma, 600 µg/kg, 24 h.
For assay [25] the target is unchanged. As to the kind of experiment: ex vivo occupancy ELISA, baboon plasma, 300 µg/kg, 24 h.
Assay [26] has the same target. As to the kind of experiment: ex vivo occupancy ELISA, baboon plasma, 100 µg/kg, 60 min.
The target is the same in assay [27]. The assay is described as follows: ex vivo ELISA on coated human collagen type I, baboon plasma 1 hour after 100 µg/kg mAb 82D6A3.
For assay [28] the target is unchanged. As to the kind of experiment: ex vivo vWF-occupancy ELISA on baboon plasma against 82D6A3 plasma level.
Assay [29] shares this target. The assay is described as follows: ex vivo occupancy ELISA, baboon plasma, 300 µg/kg, 150 min.
Assay [30] shares this target. The assay is described as follows: ex vivo occupancy ELISA, baboon plasma, 300 µg/kg, 48 h.
Assay [31] shares this target. As to the kind of experiment: ex vivo ELISA on coated human collagen type I, baboon plasma 60 min after 300 µg/kg mAb 82D6A3.
For assay [32] the target is unchanged. The assay is described as follows: ex vivo occupancy ELISA, baboon plasma, 300 µg/kg, 60 min.
Assay [33] has the same target. The assay is described as follows: ex vivo occupancy ELISA (vWF captured, bound mAb detected), baboon plasma, 100 µg/kg group, 0 min (before dosing).
The target is the same in assay [34]. The assay is described as follows: ex vivo occupancy ELISA, baboon plasma, 300 µg/kg, 30 min.
For assay [35] the target is unchanged. As to the kind of experiment: ex vivo occupancy ELISA, baboon plasma, 600 µg/kg, 60 min.
The target is the same in assay [36]. As to the kind of experiment: ex vivo ELISA on coated human collagen type I, baboon plasma 60 min after 600 µg/kg mAb 82D6A3.
Assay [37] shares this target. The assay is described as follows: ex vivo occupancy ELISA, baboon plasma, 300 µg/kg group, 0 min (before dosing).
Assay [38] shares this target. The assay is described as follows: ex vivo occupancy ELISA, baboon plasma, 600 µg/kg, 30 min.

Chain of human von Willebrand factor (vWF) (human) (P04275 764-2813 limits assumed): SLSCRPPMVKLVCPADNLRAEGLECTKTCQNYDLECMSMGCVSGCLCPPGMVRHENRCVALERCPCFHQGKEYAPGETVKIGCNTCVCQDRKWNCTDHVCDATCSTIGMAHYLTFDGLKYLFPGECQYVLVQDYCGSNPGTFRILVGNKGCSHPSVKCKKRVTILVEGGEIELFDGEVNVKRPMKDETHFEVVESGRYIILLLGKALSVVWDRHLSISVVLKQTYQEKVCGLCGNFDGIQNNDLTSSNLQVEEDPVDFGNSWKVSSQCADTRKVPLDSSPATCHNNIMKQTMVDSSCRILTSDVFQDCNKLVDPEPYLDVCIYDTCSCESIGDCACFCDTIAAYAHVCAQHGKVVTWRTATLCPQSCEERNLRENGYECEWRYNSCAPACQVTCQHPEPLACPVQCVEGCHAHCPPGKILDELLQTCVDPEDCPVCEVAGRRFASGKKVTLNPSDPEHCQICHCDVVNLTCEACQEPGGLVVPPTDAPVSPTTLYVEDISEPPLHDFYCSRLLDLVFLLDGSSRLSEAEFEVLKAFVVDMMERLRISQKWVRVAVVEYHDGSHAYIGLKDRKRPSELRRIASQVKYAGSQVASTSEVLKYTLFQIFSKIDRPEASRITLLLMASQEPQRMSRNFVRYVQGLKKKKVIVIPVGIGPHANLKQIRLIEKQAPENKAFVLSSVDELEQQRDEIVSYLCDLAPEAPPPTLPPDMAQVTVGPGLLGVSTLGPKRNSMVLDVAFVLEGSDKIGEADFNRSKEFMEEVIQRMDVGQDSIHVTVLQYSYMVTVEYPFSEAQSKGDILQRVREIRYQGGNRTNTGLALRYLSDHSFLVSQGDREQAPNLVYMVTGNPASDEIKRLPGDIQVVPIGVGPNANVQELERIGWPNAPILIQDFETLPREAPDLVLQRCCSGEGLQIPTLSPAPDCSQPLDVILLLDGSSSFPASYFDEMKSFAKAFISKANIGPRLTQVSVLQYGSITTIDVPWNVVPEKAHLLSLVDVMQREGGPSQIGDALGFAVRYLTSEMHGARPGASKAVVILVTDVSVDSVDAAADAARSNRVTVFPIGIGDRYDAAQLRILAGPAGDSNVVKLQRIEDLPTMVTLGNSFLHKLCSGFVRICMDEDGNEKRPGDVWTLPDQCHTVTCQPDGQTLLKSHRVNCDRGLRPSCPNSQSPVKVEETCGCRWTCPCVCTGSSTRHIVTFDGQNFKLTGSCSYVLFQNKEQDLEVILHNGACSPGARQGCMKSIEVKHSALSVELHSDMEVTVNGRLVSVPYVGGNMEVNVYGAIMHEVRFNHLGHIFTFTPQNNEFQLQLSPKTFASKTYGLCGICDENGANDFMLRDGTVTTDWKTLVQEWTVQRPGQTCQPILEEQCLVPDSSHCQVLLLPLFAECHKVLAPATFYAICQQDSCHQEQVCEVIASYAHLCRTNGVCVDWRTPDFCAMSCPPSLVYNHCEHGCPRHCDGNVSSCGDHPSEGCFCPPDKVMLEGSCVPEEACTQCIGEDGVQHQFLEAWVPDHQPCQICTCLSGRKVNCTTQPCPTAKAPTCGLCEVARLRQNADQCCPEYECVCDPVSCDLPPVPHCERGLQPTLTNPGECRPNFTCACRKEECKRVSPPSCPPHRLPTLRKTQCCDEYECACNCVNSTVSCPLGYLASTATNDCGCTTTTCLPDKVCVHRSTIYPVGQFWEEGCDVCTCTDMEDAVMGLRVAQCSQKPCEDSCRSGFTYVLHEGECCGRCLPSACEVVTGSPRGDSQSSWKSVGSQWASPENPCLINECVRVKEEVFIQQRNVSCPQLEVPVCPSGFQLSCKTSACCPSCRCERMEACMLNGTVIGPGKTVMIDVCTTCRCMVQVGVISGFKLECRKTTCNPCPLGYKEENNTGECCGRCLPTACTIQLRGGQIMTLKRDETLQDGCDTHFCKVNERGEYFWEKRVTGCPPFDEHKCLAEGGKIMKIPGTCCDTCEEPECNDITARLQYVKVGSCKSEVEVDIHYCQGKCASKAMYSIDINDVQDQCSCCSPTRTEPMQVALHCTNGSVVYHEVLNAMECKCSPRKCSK
Chain of baboon von Willebrand factor (vWF) (baboon) (A0A096 entry or part of it limits assumed, form in doubt): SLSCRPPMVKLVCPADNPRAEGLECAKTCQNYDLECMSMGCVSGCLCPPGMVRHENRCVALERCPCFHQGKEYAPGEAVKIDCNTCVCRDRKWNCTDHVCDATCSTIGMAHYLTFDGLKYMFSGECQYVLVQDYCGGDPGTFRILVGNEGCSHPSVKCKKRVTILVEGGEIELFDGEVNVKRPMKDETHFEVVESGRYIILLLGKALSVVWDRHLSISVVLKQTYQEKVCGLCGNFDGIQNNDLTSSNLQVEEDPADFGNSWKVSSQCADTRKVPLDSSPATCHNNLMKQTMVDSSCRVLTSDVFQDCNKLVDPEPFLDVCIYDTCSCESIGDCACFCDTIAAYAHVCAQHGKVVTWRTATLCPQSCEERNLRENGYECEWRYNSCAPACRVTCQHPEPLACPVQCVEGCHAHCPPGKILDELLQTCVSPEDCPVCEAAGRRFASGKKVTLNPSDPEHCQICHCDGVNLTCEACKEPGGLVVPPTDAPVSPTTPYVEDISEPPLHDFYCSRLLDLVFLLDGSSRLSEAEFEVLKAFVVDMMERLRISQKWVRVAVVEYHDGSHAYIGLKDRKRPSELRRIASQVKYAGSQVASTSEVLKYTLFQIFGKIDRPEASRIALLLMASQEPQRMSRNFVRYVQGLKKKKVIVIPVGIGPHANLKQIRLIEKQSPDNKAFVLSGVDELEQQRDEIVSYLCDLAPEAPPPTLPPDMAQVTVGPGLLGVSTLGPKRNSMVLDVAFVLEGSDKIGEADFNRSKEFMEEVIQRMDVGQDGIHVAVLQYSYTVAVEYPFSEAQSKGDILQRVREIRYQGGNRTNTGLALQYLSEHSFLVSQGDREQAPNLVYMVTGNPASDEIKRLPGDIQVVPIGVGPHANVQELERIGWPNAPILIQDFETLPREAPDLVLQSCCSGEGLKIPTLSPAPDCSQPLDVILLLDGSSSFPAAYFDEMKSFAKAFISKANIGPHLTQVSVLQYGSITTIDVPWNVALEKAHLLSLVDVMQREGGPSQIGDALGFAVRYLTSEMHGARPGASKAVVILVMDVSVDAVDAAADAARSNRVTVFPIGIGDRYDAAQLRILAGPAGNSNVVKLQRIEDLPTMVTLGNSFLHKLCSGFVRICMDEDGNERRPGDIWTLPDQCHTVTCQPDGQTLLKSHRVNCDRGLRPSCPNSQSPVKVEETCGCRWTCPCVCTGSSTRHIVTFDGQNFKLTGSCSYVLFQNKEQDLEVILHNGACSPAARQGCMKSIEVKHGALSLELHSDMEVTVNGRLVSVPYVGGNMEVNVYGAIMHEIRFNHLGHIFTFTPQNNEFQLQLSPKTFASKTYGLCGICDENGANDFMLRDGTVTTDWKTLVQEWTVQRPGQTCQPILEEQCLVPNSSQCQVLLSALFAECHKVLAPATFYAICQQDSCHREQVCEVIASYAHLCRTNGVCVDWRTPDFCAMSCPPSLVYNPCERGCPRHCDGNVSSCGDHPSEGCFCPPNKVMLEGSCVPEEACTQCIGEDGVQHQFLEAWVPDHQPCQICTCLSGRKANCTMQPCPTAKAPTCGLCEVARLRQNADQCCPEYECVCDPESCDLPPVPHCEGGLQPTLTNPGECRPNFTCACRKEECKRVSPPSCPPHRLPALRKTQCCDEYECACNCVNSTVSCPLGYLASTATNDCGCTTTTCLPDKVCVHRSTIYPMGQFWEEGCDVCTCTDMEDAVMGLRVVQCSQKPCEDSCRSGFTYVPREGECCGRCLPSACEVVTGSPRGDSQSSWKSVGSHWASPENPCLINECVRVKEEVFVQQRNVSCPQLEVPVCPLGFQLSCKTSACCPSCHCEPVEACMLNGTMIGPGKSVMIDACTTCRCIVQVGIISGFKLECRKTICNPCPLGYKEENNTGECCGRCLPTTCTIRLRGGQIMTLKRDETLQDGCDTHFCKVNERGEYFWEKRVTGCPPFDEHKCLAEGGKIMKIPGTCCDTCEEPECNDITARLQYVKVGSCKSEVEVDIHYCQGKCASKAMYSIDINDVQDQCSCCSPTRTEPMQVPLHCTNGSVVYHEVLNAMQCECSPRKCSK

On to 82D6A3 F(ab) fragment (Fab), for which the platelet deposition onto human collagen type I in flow, shear rate 1300 s^-1 in assay [1] was 10 µg/mL. The substance also returned a half-inhibitory concentration (IC50) in assay [2] of 1 µg/mL.

For “baboon von Willebrand factor (vWF), A0A096N8H2 764-2813”, the collagen binding (%) in [3] worked out at 4%; in [4] it was 3.5%; in assay [5] it was 4%; in assay [6], 101%; in [7], 91%; in assay [8], 100%. Besides, the collagen binding (%) in assay [9] was determined as 93%; in assay [10], 4%; in assay [11], 64%; in assay [12] it was 101%; in assay [13], 4%; in assay [14] it was 4%. For the same substance, the collagen binding (%) in assay [15] turned out to be 4%; in [16], 3.52%; in assay [17], 69%; in assay [18], 45%.

Regarding “murine anti-human vWF monoclonal antibody mAb 82D6A3”, the vWF occupancy (%) in [19] is 6.9%; in [20], 97%; in assay [21], 97%; in assay [22], 94%; in [23] it was 80%; in assay [24], 88%. Moreover, the vWF occupancy (%) in assay [25] came to 74%; in assay [26], 80%; in assay [29] it was 101%; in [30] it was 63%; in assay [32], 99%; in assay [33], 2.3%. Besides, the vWF occupancy (%) in assay [34] was found to be 102%; in assay [35], 96%; in [37] it was 2.3%; in assay [38], 96%. This substance also gave a platelet deposition onto human collagen type I in flow, shear rate 1300 s^-1 in assay [1] of 1 to 5 µg/mL. The substance also displayed an ex vivo inhibition of the vWF-collagen binding (%) in assay [27] of 31%. In assay [2], this substance registered an IC50 of 0.02 µg/mL. In assay [28], this substance gave a plasma level from which vWF-occupancy is maximal of 1 µg/mL. Moreover, the ex vivo inhibition of the vWF-collagen interaction (%) in assay [31] and in [36] was 96% in each case.
